According to US20260167721A1 (ABLEXIS, published 2026):

B1: CD3 × CD33-BspAb85 (bispecific antibody)
chain 1: EVQLVESGGGLVKPGGSLRLSCAASGFTFSSYSMNWVRQAPGKCLEWVSSISRSSGYIFYADSVKGRFTISRDNAKNSLYLQMNSLRAEDTAVYYCVRERVGAGFDYWGQGTLVTVSSGGGGSGGGGSGGGGSGGGGSNFMLTQPHSVSESPGKTVAISCTRSSGSIASNYVQWYQQRPGSSPTAVIYEDNQRPSGVPDRFSGSIDSSSNSAFLTISGLKTEDEADYYCQSYDSSNRVFGCGTKLTVLDKTHTCPPCPAPEFEGGPSVFLFPPKPKDTLMISRTPEVTCVVVDVSHEDPEVKFNWYVDGVEVHNAKTKPREEQYNSTYRVVSVLTVLHQDWLNGKEYKCKVSNKALPASIEKTISKAKGQPREPQVYTLPPCREEMTKNQVSLWCLVKGFYPSDIAVEWESNGQPENNYKTTPPVLDSDGSFFLYSKLTVDKSRWQQGNVFSCSVMHEALHNHYTQKSLSLSPGK
chain 2: EVQLVQSGAEVKKPGSSVKVSCKASGYTITDSNIHWVRQAPGQSLEWIGYIYPYNGGTDYNQKFKNRATLTVDNPTNTAYMELSSLRSEDTAFYYCVNGNPWLAYWGQGTLVTVSSASTKGPSVFPLAPSSKSTSGGTAALGCLVKDYFPEPVTVSWNSGALTSGVHTFPAVLQSSGLYSLSSVVTVPSSSLGTQTYICNVNHKPSNTKVDKRVEPKSCDKTHTCPPCPAPEFEGGPSVFLFPPKPKDTLMISRTPEVTCVVVDVSHEDPEVKFNWYVDGVEVHNAKTKPREEQYNSTYRVVSVLTVLHQDWLNGKEYKCKVSNKALPASIEKTISKAKGQPREPQVCTLPPSREEMTKNQVSLSCAVKGFYPSDIAVEWESNGQPENNYKTTPPVLDSDGSFFLVSKLTVDKSRWQQGNVFSCSVMHEALHNRFTQKSLSLSPGK
chain 3: DIQLTQSPSTLSASVGDRVTITCRASESLDNYGIRFLTWFQQKPGKAPKLLMYAASNQGSGVPSRFSGSGSGTEFTLTISSLQPDDFATYYCQQTKEVPWSFGQGTKVEVKRTVAAPSVFIFPPSDEQLKSGTASVVCLLNNFYPREAKVQWKVDNALQSGNSQESVTEQDSKDSTYSLSSTLTLSKADYEKHKVYACEVTHQGLSSPVTKSFNRGEC
B2: CD3 × CD33-BspAb115 (bispecific antibody)
chain 1: NFMLTQPHSVSESPGKTVTISCTRTSGSIASNYVQWYQQRPGSSPTTVIYEDNQRPSGVPDRFSGSIDSSSNSASLTISGLKTEDEAAYYCQSYDRSNRVFGCGTKLTVLGGGGSGGGGSGGGGSGGGGSQVQLQESGPGLVKPSETLSLTCTVSGGSISSYYWSWIRQPAGKCLEWIGRIYTSGSTKYNPSLKSRVTMSVDTSKNQFSLKLISVTAADTAVYFCARERIRDLYFDYWGQGTLVTVSSDKTHTCPPCPAPEFEGGPSVFLFPPKPKDTLMISRTPEVTCVVVDVSHEDPEVKFNWYVDGVEVHNAKTKPREEQYNSTYRVVSVLTVLHQDWLNGKEYKCKVSNKALPASIEKTISKAKGQPREPQVYTLPPCREEMTKNQVSLWCLVKGFYPSDIAVEWESNGQPENNYKTTPPVLDSDGSFFLYSKLTVDKSRWQQGNVFSCSVMHEALHNHYTQKSLSLSPGK
chain 2: B1 chain 2
chain 3: B1 chain 3
B3: CD3 × CD33-BspAb105 (bispecific antibody)
chain 1: SYELTQPPSVSVSPGQTARITCSGDALPKKYAYWYQQKSGQAPVLVIYEDSKRPSGIPERFSGSSSGTMATLTISGAQVEDEADYYCYSTDSSGNHRVFGCGTKLTVLGGGGSGGGGSGGGGSGGGGSEVQLVESGGGLVKPGGSLRLSCAASGFTFSYYSMNWVRQAPGKCLEWVSSISRSTTYIYYADSVKGRFTISRDNAKNSLYLQMNSLRAEDTAVYYCARDGKGAIFLDYWGQGTLVTVSSDKTHTCPPCPAPEFEGGPSVFLFPPKPKDTLMISRTPEVTCVVVDVSHEDPEVKFNWYVDGVEVHNAKTKPREEQYNSTYRVVSVLTVLHQDWLNGKEYKCKVSNKALPASIEKTISKAKGQPREPQVYTLPPCREEMTKNQVSLWCLVKGFYPSDIAVEWESNGQPENNYKTTPPVLDSDGSFFLYSKLTVDKSRWQQGNVFSCSVMHEALHNHYTQKSLSLSPGK
chain 2: B1 chain 2
chain 3: B1 chain 3
B4: CD3 × CD33-BspAb125 (bispecific antibody)
chain 1: not shown
chain 2: B1 chain 2
chain 3: B1 chain 3
B5: CD3 × CD33-BspAb94 (bispecific antibody)
chain 1: NFMLTQPHSVSESPGKTVTISCTRSSGSIASNYVQWYQQRPGSSPTTVIYEDNQRPSGVPDRFSGSIDSSSNSASLTISGLKTEDEADYYCQSYDSSNRVFGCGTKLTVLGGGGSGGGGSGGGGSGGGGSEVQLVESGGGLVKPGGSLRLSCAASGFTFSSYTMNWVRQAPGKCLEWVSSITTSSSYIYYADSVKGRFTISRDNAKNSLYLQMNSLRAEDTAVYYCARVTFDAFDIWGQGTMVTVSSDKTHTCPPCPAPEFEGGPSVFLFPPKPKDTLMISRTPEVTCVVVDVSHEDPEVKFNWYVDGVEVHNAKTKPREEQYNSTYRVVSVLTVLHQDWLNGKEYKCKVSNKALPASIEKTISKAKGQPREPQVYTLPPCREEMTKNQVSLWCLVKGFYPSDIAVEWESNGQPENNYKTTPPVLDSDGSFFLYSKLTVDKSRWQQGNVFSCSVMHEALHNHYTQKSLSLSPGK
chain 2: B1 chain 2
chain 3: B1 chain 3
B6: CD3 × CD33-BspAb90 (bispecific antibody)
chain 1: not shown
chain 2: B1 chain 2
chain 3: B1 chain 3
B7: CD3 × CD33-BspAb86 (bispecific antibody)
chain 1: EVQLVESGGGLVKPGGSLRLSCAASGFTFSSYSMNWVRQAPGKCLEWVSSISRSGTYIYYADSVKGRFTISRDNAKNSLYLQMNSLRAEDTAVYYCARERWELLYFDYWGQGTLVTVSSGGGGSGGGGSGGGGSGGGGSQTVVTQEPSLTVSPGGTVTLTCASSTGAVTSGYYPNWFQQKPGQAPRALIYSTSNKHSWTPARFSGSLLGGKAALTLSGVQPEDEAEYYCLLYYGGAYVFGCGTKVTVLDKTHTCPPCPAPEFEGGPSVFLFPPKPKDTLMISRTPEVTCVVVDVSHEDPEVKFNWYVDGVEVHNAKTKPREEQYNSTYRVVSVLTVLHQDWLNGKEYKCKVSNKALPASIEKTISKAKGQPREPQVYTLPPCREEMTKNQVSLWCLVKGFYPSDIAVEWESNGQPENNYKTTPPVLDSDGSFFLYSKLTVDKSRWQQGNVFSCSVMHEALHNHYTQKSLSLSPGK
chain 2: B1 chain 2
chain 3: B1 chain 3

What follows are binders tested against T1, CD3 on human donor PBMC / Pan T effector cells (human, UniProt P07766 23-207; P09693 23-182; P04234 22-171; P20963 22-164) (assay: cell-based or functional assay).
T1 sequence (P07766 23-207, chain 1 of 4): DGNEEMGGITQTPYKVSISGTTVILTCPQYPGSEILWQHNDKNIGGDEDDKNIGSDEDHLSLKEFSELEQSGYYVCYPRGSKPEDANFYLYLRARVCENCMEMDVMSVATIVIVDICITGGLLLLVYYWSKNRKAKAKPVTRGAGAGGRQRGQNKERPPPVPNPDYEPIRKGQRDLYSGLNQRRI
T1 sequence (P09693 23-182, chain 2 of 4): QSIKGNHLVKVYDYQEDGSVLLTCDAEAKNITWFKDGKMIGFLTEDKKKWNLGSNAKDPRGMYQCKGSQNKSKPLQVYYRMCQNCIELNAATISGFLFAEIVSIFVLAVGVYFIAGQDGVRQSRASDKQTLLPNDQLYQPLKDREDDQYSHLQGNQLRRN
T1 sequence (P04234 22-171, chain 3 of 4): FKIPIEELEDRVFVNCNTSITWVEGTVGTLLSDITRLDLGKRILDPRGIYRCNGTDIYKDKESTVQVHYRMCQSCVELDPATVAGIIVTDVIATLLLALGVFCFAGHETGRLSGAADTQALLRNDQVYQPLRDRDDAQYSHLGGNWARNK
T1 sequence (P20963 22-164, chain 4 of 4): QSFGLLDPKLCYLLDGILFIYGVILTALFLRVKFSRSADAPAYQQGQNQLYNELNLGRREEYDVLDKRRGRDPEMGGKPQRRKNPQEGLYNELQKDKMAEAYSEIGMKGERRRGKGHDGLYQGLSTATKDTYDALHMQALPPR

| Binder | Cytokine Release Assay (TNFα) Donor 0 EC50 [nM] | Cytokine Release Assay (TNFα) Donor 0 gMFI max [gMFI] | Cytokine Release Assay (TNFα) Donor 1 EC50 [nM] | Cytokine Release Assay (TNFα) Donor 1 gMFI max [gMFI] | Cytokine Release Assay (TNFα) Donor 2 EC50 [nM] | Cytokine Release Assay (TNFα) Donor 2 gMFI max [gMFI] | Cytokine Release Assay (TNFα) Donor 3 EC50 [nM] | Cytokine Release Assay (TNFα) Donor 3 gMFI max [gMFI] |
| --- | --- | --- | --- | --- | --- | --- | --- | --- |
| B1 | 0.114 | 44800 | 0.647 | 5490 | 0.0497 | 18400 | 0.0635 | 26600 |
| B2 | 0.0814 | 91600 | 0.0553 | 13000 | 0.0452 | 24100 | 0.046 | 48600 |
| B3 |  | 5210 |  | 4470 |  | 5500 |  | 4390 |
| B4 | 0.475 | 39600 |  | 5100 | 0.054 | 12000 | 0.0446 | 17800 |
| B5 |  | 5150 |  | 4670 |  | 4420 |  | 4110 |
| B6 | 0.136 | 61700 |  | 5330 | 0.0788 | 16000 | 0.0724 | 32800 |
| B7 | 2.15 | 34100 |  | 4900 | 2.19 | 10900 | 5.58 | 25200 |

Target: T1, CD3 on human donor PBMC / Pan T …
Assay: cell-based or functional assay
Remark: another data set of the same source

| Binder | Cytokine Release Assay (IL2) Donor 0 EC50 [nM] | Cytokine Release Assay (IL2) Donor 0 gMFI max [gMFI] | Cytokine Release Assay (IL2) Donor 1 EC50 [nM] | Cytokine Release Assay (IL2) Donor 1 gMFI max [gMFI] | Cytokine Release Assay (IL2) Donor 2 EC50 [nM] | Cytokine Release Assay (IL2) Donor 2 gMFI max [gMFI] | Cytokine Release Assay (IL2) Donor 3 EC50 [nM] | Cytokine Release Assay (IL2) Donor 3 gMFI max [gMFI] |
| --- | --- | --- | --- | --- | --- | --- | --- | --- |
| B1 | 0.121 | 33000 | 0.442 | 23100 | 0.222 | 32600 | 0.0926 | 49700 |
| B2 | 0.206 | 242000 | 0.0755 | 99300 | 0.0806 | 45200 | 0.0479 | 300000 |
| B3 | 0.454 | 16900 | 0.232 | 13400 |  | 15900 | 0.141 | 18000 |
| B4 | 0.105 | 52800 | 0.102 | 22300 | 0.115 | 25100 |  | 65800 |
| B5 |  | 13600 | 3.58 | 14800 |  | 12500 | 1.47 | 13900 |
| B6 | 0.0887 | 69600 | 0.0832 | 24300 | 0.0612 | 30000 |  | 79300 |
| B7 | 4.13 | 34400 | 4.24 | 18800 | 6.46 | 22100 | 3.52 | 42100 |
